Sequences and labels used below:
T1: human calcitonin (a) receptor (human, UniProt P30988 25-474)
T1 sequence (looked up): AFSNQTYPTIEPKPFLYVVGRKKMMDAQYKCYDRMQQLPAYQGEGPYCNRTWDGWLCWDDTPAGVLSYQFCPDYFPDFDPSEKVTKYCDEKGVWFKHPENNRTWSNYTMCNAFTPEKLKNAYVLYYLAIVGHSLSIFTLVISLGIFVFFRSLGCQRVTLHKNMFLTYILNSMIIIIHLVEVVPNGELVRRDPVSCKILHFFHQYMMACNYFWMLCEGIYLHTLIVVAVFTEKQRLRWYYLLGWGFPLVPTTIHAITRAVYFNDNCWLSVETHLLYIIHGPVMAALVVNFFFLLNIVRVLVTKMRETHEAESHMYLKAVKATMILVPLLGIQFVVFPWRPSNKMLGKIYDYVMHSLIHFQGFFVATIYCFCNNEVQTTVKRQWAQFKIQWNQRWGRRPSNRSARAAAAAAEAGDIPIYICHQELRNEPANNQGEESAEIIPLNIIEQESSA

T2: human amylin 3(a) receptor (human calcitonin receptor + RAMP-3) (human, UniProt P30988 25-474; O60896 24-148)
T2 sequence (looked up) 1: T1 sequence (looked up)
T2 sequence (looked up) 2: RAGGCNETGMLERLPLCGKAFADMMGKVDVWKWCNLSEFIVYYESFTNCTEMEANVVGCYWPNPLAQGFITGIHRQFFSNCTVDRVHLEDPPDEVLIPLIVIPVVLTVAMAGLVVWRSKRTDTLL

T3: rat calcitonin (a) receptor (rat, UniProt P32214 25-516)
T3 sequence (looked up): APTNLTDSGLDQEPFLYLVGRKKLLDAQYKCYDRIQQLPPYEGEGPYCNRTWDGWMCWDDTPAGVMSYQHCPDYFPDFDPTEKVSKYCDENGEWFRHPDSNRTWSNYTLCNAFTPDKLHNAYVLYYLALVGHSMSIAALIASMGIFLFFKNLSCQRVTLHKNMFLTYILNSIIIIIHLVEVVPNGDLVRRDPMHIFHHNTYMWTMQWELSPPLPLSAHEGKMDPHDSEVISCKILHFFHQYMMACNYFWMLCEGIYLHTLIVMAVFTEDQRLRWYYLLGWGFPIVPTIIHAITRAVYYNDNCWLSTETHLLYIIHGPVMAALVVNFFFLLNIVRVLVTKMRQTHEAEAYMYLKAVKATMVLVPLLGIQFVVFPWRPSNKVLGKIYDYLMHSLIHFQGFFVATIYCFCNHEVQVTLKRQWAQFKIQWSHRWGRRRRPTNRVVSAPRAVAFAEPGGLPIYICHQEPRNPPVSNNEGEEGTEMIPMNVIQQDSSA

T4: rat amylin 3(a) receptor (rat calcitonin(a) receptor + rat RAMP3) (rat, UniProt P32214 25-516; Q9JJ73 23-147)
T4 sequence (looked up) 1: T3 sequence (looked up)
T4 sequence (looked up) 2: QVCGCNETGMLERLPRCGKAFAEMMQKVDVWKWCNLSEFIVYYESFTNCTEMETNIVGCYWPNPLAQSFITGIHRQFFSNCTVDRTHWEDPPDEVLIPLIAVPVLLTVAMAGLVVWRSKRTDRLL

B1: N-epsilon1-[(S)-4-Carboxy-4-(19-carboxynonadecanoylamino)butyryl]-[Glu14,His17,His35]-pramlintide (peptide)
peptide: K([γGlu-C20 diacid])CNTATCATQRLAEFLHHSSNNFGPILPPTNVGSHTY-NH2
modifications: disulfide 2-7; N-terminus assumed
SMILES: CC[C@H](C)[C@H](NC(=O)[C@@H]1CCCN1C(=O)CNC(=O)[C@H](Cc1ccccc1)NC(=O)[C@H](CC(N)=O)NC(=O)[C@H](CC(N)=O)NC(=O)[C@H](CO)NC(=O)[C@H](CO)NC(=O)[C@H](Cc1c[nH]cn1)NC(=O)[C@H](Cc1c[nH]cn1)NC(=O)[C@H](CC(C)C)NC(=O)[C@H](Cc1ccccc1)NC(=O)[C@H](CCC(=O)O)NC(=O)[C@H](C)NC(=O)[C@H](CC(C)C)NC(=O)[C@H](CCCNC(=N)N)NC(=O)[C@H](CCC(N)=O)NC(=O)[C@@H](NC(=O)[C@H](C)NC(=O)[C@@H]1CSSC[C@H](NC(=O)[C@@H](N)CCCCNC(=O)CC[C@H](NC(=O)CCCCCCCCCCCCCCCCCCC(=O)O)C(=O)O)C(=O)N[C@@H](CC(N)=O)C(=O)N[C@@H]([C@@H](C)O)C(=O)N[C@@H](C)C(=O)N[C@@H]([C@@H](C)O)C(=O)N1)[C@@H](C)O)C(=O)N[C@@H](CC(C)C)C(=O)N1CCC[C@H]1C(=O)N1CCC[C@H]1C(=O)N[C@H](C(=O)N[C@@H](CC(N)=O)C(=O)N[C@H](C(=O)NCC(=O)N[C@@H](CO)C(=O)N[C@@H](Cc1c[nH]cn1)C(=O)N[C@H](C(=O)N[C@@H](Cc1ccc(O)cc1)C(N)=O)[C@@H](C)O)C(C)C)[C@@H](C)O
B2: N-alpha-[(S)-4-Carboxy-4-(19-carboxynonadecanoylamino)butyryl]-[Gly1,Glu14,Arg17,Pro37]-pramlintide (peptide)
peptide: {C20 diacid-γGlu}-GCNTATCATQRLAEFLRHSSNNFGPILPPTNVGSNTP-NH2
modifications: disulfide 2-7
SMILES: CC[C@H](C)[C@H](NC(=O)[C@@H]1CCCN1C(=O)CNC(=O)[C@H](Cc1ccccc1)NC(=O)[C@H](CC(N)=O)NC(=O)[C@H](CC(N)=O)NC(=O)[C@H](CO)NC(=O)[C@H](CO)NC(=O)[C@H](Cc1c[nH]cn1)NC(=O)[C@H](CCCNC(=N)N)NC(=O)[C@H](CC(C)C)NC(=O)[C@H](Cc1ccccc1)NC(=O)[C@H](CCC(=O)O)NC(=O)[C@H](C)NC(=O)[C@H](CC(C)C)NC(=O)[C@H](CCCNC(=N)N)NC(=O)[C@H](CCC(N)=O)NC(=O)[C@@H](NC(=O)[C@H](C)NC(=O)[C@@H]1CSSC[C@H](NC(=O)CNC(=O)CC[C@H](NC(=O)CCCCCCCCCCCCCCCCCCC(=O)O)C(=O)O)C(=O)N[C@@H](CC(N)=O)C(=O)N[C@@H]([C@@H](C)O)C(=O)N[C@@H](C)C(=O)N[C@@H]([C@@H](C)O)C(=O)N1)[C@@H](C)O)C(=O)N[C@@H](CC(C)C)C(=O)N1CCC[C@H]1C(=O)N1CCC[C@H]1C(=O)N[C@H](C(=O)N[C@@H](CC(N)=O)C(=O)N[C@H](C(=O)NCC(=O)N[C@@H](CO)C(=O)N[C@@H](CC(N)=O)C(=O)N[C@H](C(=O)N1CCC[C@H]1C(N)=O)[C@@H](C)O)C(C)C)[C@@H](C)O
B3: N-alpha-[(S)-4-Carboxy-4-(19-carboxynonadecanoylamino)butyryl]-[His1,Glu14,Arg17,Pro37]-pramlintide (peptide)
peptide: X1-HCNTATCATQRLAEFLRHSSNNFGPILPPTNVGSNTP-NH2
modifications: disulfide 2-7
SMILES: CC[C@H](C)[C@H](NC(=O)[C@@H]1CCCN1C(=O)CNC(=O)[C@H](Cc1ccccc1)NC(=O)[C@H](CC(N)=O)NC(=O)[C@H](CC(N)=O)NC(=O)[C@H](CO)NC(=O)[C@H](CO)NC(=O)[C@H](Cc1c[nH]cn1)NC(=O)[C@H](CCCNC(=N)N)NC(=O)[C@H](CC(C)C)NC(=O)[C@H](Cc1ccccc1)NC(=O)[C@H](CCC(=O)O)NC(=O)[C@H](C)NC(=O)[C@H](CC(C)C)NC(=O)[C@H](CCCNC(=N)N)NC(=O)[C@H](CCC(N)=O)NC(=O)[C@@H](NC(=O)[C@H](C)NC(=O)[C@@H]1CSSC[C@H](NC(=O)[C@H](Cc2c[nH]cn2)NC(=O)CC[C@H](NC(=O)CCCCCCCCCCCCCCCCCCC(=O)O)C(=O)O)C(=O)N[C@@H](CC(N)=O)C(=O)N[C@@H]([C@@H](C)O)C(=O)N[C@@H](C)C(=O)N[C@@H]([C@@H](C)O)C(=O)N1)[C@@H](C)O)C(=O)N[C@@H](CC(C)C)C(=O)N1CCC[C@H]1C(=O)N1CCC[C@H]1C(=O)N[C@H](C(=O)N[C@@H](CC(N)=O)C(=O)N[C@H](C(=O)NCC(=O)N[C@@H](CO)C(=O)N[C@@H](CC(N)=O)C(=O)N[C@H](C(=O)N1CCC[C@H]1C(N)=O)[C@@H](C)O)C(C)C)[C@@H](C)O
B4: N-alpha-[(S)-4-Carboxy-4-(19-carboxynonadecanoylamino)butyryl]-[Glu14,His35]-pramlintide (peptide)
peptide: {C20 diacid-γGlu}-KCNTATCATQRLAEFLVHSSNNFGPILPPTNVGSHTY-NH2
modifications: disulfide 2-7
SMILES: CC[C@H](C)[C@H](NC(=O)[C@@H]1CCCN1C(=O)CNC(=O)[C@H](Cc1ccccc1)NC(=O)[C@H](CC(N)=O)NC(=O)[C@H](CC(N)=O)NC(=O)[C@H](CO)NC(=O)[C@H](CO)NC(=O)[C@H](Cc1c[nH]cn1)NC(=O)[C@@H](NC(=O)[C@H](CC(C)C)NC(=O)[C@H](Cc1ccccc1)NC(=O)[C@H](CCC(=O)O)NC(=O)[C@H](C)NC(=O)[C@H](CC(C)C)NC(=O)[C@H](CCCNC(=N)N)NC(=O)[C@H](CCC(N)=O)NC(=O)[C@@H](NC(=O)[C@H](C)NC(=O)[C@@H]1CSSC[C@H](NC(=O)[C@H](CCCCN)NC(=O)CC[C@H](NC(=O)CCCCCCCCCCCCCCCCCCC(=O)O)C(=O)O)C(=O)N[C@@H](CC(N)=O)C(=O)N[C@@H]([C@@H](C)O)C(=O)N[C@@H](C)C(=O)N[C@@H]([C@@H](C)O)C(=O)N1)[C@@H](C)O)C(C)C)C(=O)N[C@@H](CC(C)C)C(=O)N1CCC[C@H]1C(=O)N1CCC[C@H]1C(=O)N[C@H](C(=O)N[C@@H](CC(N)=O)C(=O)N[C@H](C(=O)NCC(=O)N[C@@H](CO)C(=O)N[C@@H](Cc1c[nH]cn1)C(=O)N[C@H](C(=O)N[C@@H](Cc1ccc(O)cc1)C(N)=O)[C@@H](C)O)C(C)C)[C@@H](C)O
B5: N-alpha-[(S)-4-Carboxy-4-(19-carboxynonadecanoylamino)butyryl]-Gly-[His1,Glu14,Arg17,Pro37]-pramlintide (peptide)
peptide: {C20 diacid-γGlu}-GHCNTATCATQRLAEFLRHSSNNFGPILPPTNVGSNTP-NH2
modifications: disulfide 3-8
SMILES: CC[C@H](C)[C@H](NC(=O)[C@@H]1CCCN1C(=O)CNC(=O)[C@H](Cc1ccccc1)NC(=O)[C@H](CC(N)=O)NC(=O)[C@H](CC(N)=O)NC(=O)[C@H](CO)NC(=O)[C@H](CO)NC(=O)[C@H](Cc1c[nH]cn1)NC(=O)[C@H](CCCNC(=N)N)NC(=O)[C@H](CC(C)C)NC(=O)[C@H](Cc1ccccc1)NC(=O)[C@H](CCC(=O)O)NC(=O)[C@H](C)NC(=O)[C@H](CC(C)C)NC(=O)[C@H](CCCNC(=N)N)NC(=O)[C@H](CCC(N)=O)NC(=O)[C@@H](NC(=O)[C@H](C)NC(=O)[C@@H]1CSSC[C@H](NC(=O)[C@H](Cc2c[nH]cn2)NC(=O)CNC(=O)CC[C@H](NC(=O)CCCCCCCCCCCCCCCCCCC(=O)O)C(=O)O)C(=O)N[C@@H](CC(N)=O)C(=O)N[C@@H]([C@@H](C)O)C(=O)N[C@@H](C)C(=O)N[C@@H]([C@@H](C)O)C(=O)N1)[C@@H](C)O)C(=O)N[C@@H](CC(C)C)C(=O)N1CCC[C@H]1C(=O)N1CCC[C@H]1C(=O)N[C@H](C(=O)N[C@@H](CC(N)=O)C(=O)N[C@H](C(=O)NCC(=O)N[C@@H](CO)C(=O)N[C@@H](CC(N)=O)C(=O)N[C@H](C(=O)N1CCC[C@H]1C(N)=O)[C@@H](C)O)C(C)C)[C@@H](C)O

Starred links: 1 amine or outer side, 2 acyl side, 3 side chain; linkers in the order of their positions; H or OH if unused. Positions of bridges follow the written chain, without caps; N, C: chain ends. Groups on a side chain read outwards from the residue. No end group written: not given here. *: point of attachment. X1 = (S)‑4‑Carboxy‑4‑(19-carboxynonadecanoylamino)butyryl, O=C(O)CCCCCCCCCCCCCCCCCCC(=O)N[C@@H](CCC(=O)*)C(=O)O; C20 diacid = O=C(O)CCCCCCCCCCCCCCCCCCC(=O)*; γGlu = O=C(O)[C@H](CCC(=O)[*:2])N[*:1]

This is an account of results in patent US20130005646A1 (Novo Nordisk, published 2013).

One experiment has as its target T1, human calcitonin (a) receptor. Briefly: cell-based or functional assay.
Take B1: the “CTa receptor human EC50” value came out at 0.228 nM.
On to B2, for which the “CTa receptor human EC50” value was 0.055 nM.
B3: the “CTa receptor human EC50” value came out at 0.0475 nM.
B4: the “CTa receptor human EC50” value is 0.18 nM.
For the molecule B5, the “CTa receptor human EC50” value came to 0.0395 nM.

The target of another experiment is T2, human amylin 3(a) receptor (human …). Briefly: cell-based or functional assay.
In the case of B1, the “Amylin receptor human EC50” value was found to be 0.142 nM.
Same read-out and setting: under B2 stands 0.036 nM.
On the same count and under the same terms, with B3 the figure was 0.0325 nM; with B4, 0.136 nM.
In the case of B5, the “Amylin receptor human EC50” value was determined as 0.0255 nM.

A further experiment has as its target T3, rat calcitonin (a) receptor. Nature of the experiment: cell-based or functional assay.
With B1, the “CTa receptor rat EC50” value is 0.437 nM.
Turning to B2, the “CTa receptor rat EC50” value stood at 0.37 nM.
In the case of B3, the “CTa receptor rat EC50” value is 0.128 nM.
For B4, the “CTa receptor rat EC50” value was 0.215 nM.
In the case of B5, the “CTa receptor rat EC50” value was determined as 0.114 nM.

In another experiment the target is T4, rat amylin 3(a) receptor (rat …). Briefly: cell-based or functional assay.
Regarding B1, the “Amylin receptor rat EC50” value was 0.106 nM.
B2: the “Amylin receptor rat EC50” value was 0.3 nM.
Turning to B3, the “Amylin receptor rat EC50” value came out at 0.217 nM.
For the molecule B4, the “Amylin receptor rat EC50” value is 0.138 nM.
For the molecule B5, the “Amylin receptor rat EC50” value stood at 0.151 nM.
